From a protein production outcome set (Wang et al. 2014)

Assay: label from the status in PepcDB records

| Sequence | protein production |
| --- | --- |
| MAAKSLVDIAYESDSSSDSSDEGDVPCLPKDEVNERKLQNLQRKAFYNLLQTFAFENSTMSNKRTEIIGKLMNEWGIANETHISFADQIQKKLLTLKQTKHSGVKETQIPATPLTNTATPSTFFVPKPVKSWGSVNPESLIGKWVSIRLPDKAKFTEYIIKAYDAEKEMHSLLTETSNPMEVDCIDPFRWIDIRDISPNDIMWEGGQKPNFAAPNQSAAATGQ | failed |
| MGIHAKLETVQLPLLVSCLFPPLTMPAKDVQICPIAVDTTVFRSRTWDRLKFEIEYGLQRGTTANSYLISADKIALFDPPGESFTDNFVGTLIQRLDLNSLDYVILGHVNANRAHTLKLLLSLAPQATIICSNPAAQNLEKLLADAEVNNPIQVMKGNDHLDLGRGHELTFIPTPSPRYPGQLCTYDPRTEILFTDKLFGAHVCGDQVFDEGWTIYQEDRRYYFDCLLAPAAAQVSAALNKLEAYPAQTYAPSHGPLVRYGLRELTRNYQQWLSEQQAQALNVALIYASAYGNTSTLAQAIARGITKAGVAVTAINAETSNAEEIKEAIGKSAGFIFGSPTLGGHAPTPIQTALGITLANASKTQLCGVFGSFGWSGEAIDMLENKFRDAGFSFGFDTIRVKFKPTDQTLKMCEEAGTDFAQALKKAEKRRQPKSALPESESARTEQALGRLVGSLCVVTAQQGELSSAMLASWVSQATFSPPGLTVAVAKERAIESLLHKNSCFVLNILQEGNHLGLMKHFLKPFAPGGDRFADVATETAENGAPILTESLAYLECRVQQRLECGDHWVLYAVTDRGALLKDGVTAVHHRKSGDHY | failed |
| MKLGYSLSKSNAKNFKFYINGSAMGYKNIIINGAKSWNASPYLNTVSKGRDANPHFIISSSTIDRGATVAVCETWAYKGSKLVAKNEITTFKAFRSLSVGDKTETIAHEFGHGLGLGHVKTKNAIMLDVGFTKKIKPQRDDLNGIKAIYKLEHHHHHH | failed |
| MSFLCVRTVSRFRSLSRALAPGFLLLHGNAVPKTAVFFRQQSSNTRLFSSYTAPSGVEENNSKSALKNKLPPGKEVSSKDAKEKITTSAIDLALNSVVKVFTVSSKPRLFQPWQITMQSESTGSGFVISGKKILTNAHVVANQTSVKVRKHGSTTKYKAKVQAVGHECDLAILEIDNDKFWEGMNPLELGDIPSMQDTVYVVGYPKGGDTISVSKGVVSRVGPIKYSHSGTELLAIQIDAAINNGNSGGPVIMGNKVAGVAFESLCYSDSIGYIIPTPVIRHFLNAIEESGEDVSFGSINLTYQKMDNDQLRKDFKMSDKMTGILINKINPLSDVHKVLKKDDIILAIDGVPIGNDSSVHFRKKERITFKHLVSMKKPCETALLKVLREGKEYEFNSSLKSVPPLVPKRQYDKSASYYIFGGLVFLPLTKPYIDSSCVSESALGKMPKKAGEQVVIISQILEDDINTGYSIFEDFQVKKVNGVQVHNLKHLYKLVEECCTETVRMDLEKDKVITLDYKSAKKVTSKILKSLKIPSAVSEDLQPKQQNKRSKVPPKSKEH | failed |
| MENGLWEVLGSKGLLKKHEFIRILVQCLYSLGFKNSASCLEFESKILYKTADSEFLEKQVLSGNWDSCVQVLDRIFDNSMDDTRNTALYLVFKQCLLEYLKRGDVSLALNVLRKQAPLLRMGKEKIHRLACDIVYSKEMESGEVDNCLVLDLRRKLLVELEKLIPLPIVIPERRLEHLVETAVMDQIDTCMYHNSCDAVSLYKDHCCGRDQIPSETVQILVAHKNEVWFVQFSNSGKYLATASSDCTAIIWKVLDDNKVELKHTLESHQNPVSFVSWSPDDTKLLTCGNAEVLKLWDVDTGVLRHTFGNNNTGFTVSSCAWFPDSTRLVCGSSDPERGIVMWDTDGNEIKAWRGTRIPKVVDLAVTPDGESMITVFSDKEIRILNLETKVERVISEEQPITSLSISGDGKFFIVNLSCQEIHLWDLAGEWKQPLKFSGHRQSKYVIRSCFGGLDSSFIASGSEDSQVYIWNLKNTKPLEVLSGHSMTVNCVSWNPKNPRMLASASDDQTIRIWGPGKPNKPLN | failed |
| MSRQQARGALGRAWWLQLALALLPLILVEFFLGELQPLPHGLAMPLFIAALLSMFVNLPLFGAYKRGLIATQKALDTAEEAAAWTRLAQVRRKALFGASLPAWIGVPGVFAGLNGVALILLGVTSLVLFWLYRIPRQLG | failed |
| EFTTMLGPAVLGLSLWALLHPGTGAPLCLSQQLRMKGDYVLGGLFPLGEAEEAGLRSRTRPSSPVCTRFSSNGLLWALAMKMAVEEINNKSDLLPGLRLGYDLFDTCSEPVVAMKPSLMFLAKAGSRDIAAYCNYTQYQPRVLAVIGPHSSELAMVTGKFFSFFLMPQVSYGASMELLSARETFPSFFRTVPSDRVQLTAAAELLQEFGWNWVAALGSDDEYGRQGLSIFSALAAARGICIAHEGLVPLPRADDSRLGKVQDVLHQVNQSSVQVVLLFASVHAAHALFNYSISSRLSPKVWVASEAWLTSDLVMGLPGMAQMGTVLGFLQRGAQLHEFPQYVKTHLALATDPAFCSALGEREQGLEEDVVGQRCPQCDCITLQNVSAGLNHHQTFSVYAAVYSVAQALHNTLQCNASGCPAQDPVKPWQLLENMYNLTFHVGGLPLRFDSSGNVDMEYDLKLWVWQGSVPRLHDVGRFNGSLRTERLKIRWHTSDNQKPVSRCSRQCQEGQVRRVKGFHSCCYDCVDCEAGSYRQNPDDIACTFCGQDEWSPERSTRCFRRRSRFLAWGEPAVLLLLLLLSLALGLVLAALGLFVHHRDSPLVQASGGPLACFGLVCLGLVCLSVLLFPGQPSPARCLAQQPLSHLPLTGCLSTLFLQAAEIFVESELPLSWADRLSGCLRGPWAWLVVLLAMLVEVALCTWYLVAFPPEVVTDWHMLPTEALVHCRTRSWVSFGLAHATNATLAFLCFLGTFLVRSQPGRYNRARGLTFAMLAYFITWVSFVPLLANVQVVLRPAVQMGALLLCVLGILAAFHLPRCYLLMRQPGLNTPEFFLGGGPGDAQGQNDGNTGNQGKHE | failed |
| SSRRRRIVAAARDYVLAHRSRPVGVPELCEQLHVSRRTLQYCFQDVLGMAPATYLRALRLNGVRRDLRGRAADSVQDVAAAWGFWHLSQFATDYRRMFGARPSETLRGALA | failed |
| MASEAVNVWSRTSLILIMLSAAILVVAVGAVMNSGLVESLQVPLWEKWVILVFLFALIIGIIGPLSGVGGGVIFVGLGMAILPFNVDFIRGAGLVAALSTSLNSAPYFTKKGLANLRIVAPLVSVSTIFSVFGGVIGLWISNSFPEGSYYVKMSLGVVLLVLLLILSRSKNVEYPPPREKKDRLSEMIDLTGGWYEPTLNRIVTYEASNLPLAMLAFSGVGFLAGMFGLGAGWANVPILNLVMGLPLKAAVASSMLILAINDSASLWVYLANGAVLPIVVVPVVLGISIGSRIGSRLAAKTKPKVIKRLVIALIALSGVVNIIQGLSGIGLLNL | failed |
| MKKIGILTSGGDCGGLNAVIKGAALMALNKGLELYVIPNGYAGLYNLLNQDRLVRLDEARLDQFQASFAGSEAGHSRVKIKAISNPDKYNRIKVGMKKFDLDALIISGGDDSGSVMIDLNHNGIQCIHCPKTMDLDLQTYSVGGDSTINRIAQFVEDLKTTGRTHNRVLVTEVFGRYAGHTAFRSGVAAEADCILIPEIPVDWDVVYEHIVERFTRRIRQSDVHSGTYTIVVAEGMKNADGTDIVDESAGIDAFGHKKLAGAGKYVCQEIKKRFKTDPRMPQFMKDTGMFVEGIYEIPEVREVHPGHLVRAGHSSAYDINFGFEAGAAAVLLLLEGKTGVTISKVKGRKIEYIEASKAIEQRYVDLDQVAMYESIGTCFGRTPAAYEPILREVDGVYERIY | failed |
| MKKLFTNTIFIQSNLERLSTILKSPQNLSKWVPDINSVSPKDDYFLISRSSSALNNFEKISVTSQDNSIIYTSTGGRLEYELHFDLTNKDDRTLVEQTLLVDETLTKLPLTLLAPIAKHAFHENLSSLERLIAISLEHHHHHH | failed |
| MNTMEEKYILSDRGKVYYWIKESNSVFAKNLIFLPGLTANHHLFDFQIQYFSKNHNVLVWDAPAHGKSRPYLDFSYSNLVEELKVILDKQNMKKVVLIGQSAGGFVAQSFIVKYPNMVEGLMMIGTCPYGTDYYSKSDIFWLKQTEWMLKLFPDKLLRNIISKMCGATSEGRRSMLKMLEGYEKKELCHLMYLGFAGFIPEIQDLNIHCPVCLVVGDKDKTGKVRKYNEQWHNKTGYPLHIIKNASHNVNVDKPNELNQIMDIFIKQLN | not failed |
| MALLIITTILWAFSFSLIGEYLAGSVDSYFSVLMRVGLAALVFLPFLRTRGQSPRTIVLYMLVGAMQLGIMYLLAFRAYLYLTVSEFLLFTVFTPLYITLIYDLLSGRKLRWGYLLSAALAVLGAAIIRYDKVSDHFWTGLLLVQLSNLCFAIGMVGYKRLMEVRPMPQHNAFAWFYVGAFIVAVAAWFMLGNAQKLPTTTLQWSVLVWLGVVASGLGYFMWNYGATQVDAGTLGIMNNVHVPAGLLVNLAIWQEQPHWPSFISGALVILASLWVHRRWVAPHSGQTADDRRRGSAQSE | failed |
| MKSTAEYLEDPEQAADRALSLLQDLGGLSAAAAWGRSGVMWRRLAGFGDLAGLPDGAALAAGERPPAGGAMAMRAGDGALGWLAWQGKPPGQMETVAELLAGHLQCEALRAEQAATRVANETMLEISLLAGECPTLDRLLPRLHRLMQRLMDADNFYIALCGDDRSTLSFPFYADRREASPPDPERAFPIAGPDVSLTAWLIRGGAPMVLTGERIEALCRQEALARPANLPAFWMGAPLRNAADELIGAAVLQRYDDQPPLTSAEQLLFMFAARHVGFALDRVLYHRRLERQVALRTSELEGANARLRAEVASRKRAEKFQDVLFRIAELSNTSLSLEAFLSGLHRLLLEMVAARNCVVALYDMGSDLISFPYCADEYAPALKPRKPGKGLIEQVLHSGRPLLLDPYGSLQGMAAAEGATPPKSWLGVPLYCDHELLGVLAVQSYDGDVVYGYRDQEVLEFVANHIGTALARVRALESLQHAYADLEQRVRERTSELDAVNAQLEFDSLHDPLTKLPNRNYFSKALRRAWDAYLDGGDRFAVVFIDLDRFKLVNDTLGHLAGDHLLFEAGARIRSCLRHYDFLARLGGDEFAVLMFGMDAVDECEVIARRIVSEFERPVVLAGREVFSTASVGVVLADSEHYHKADDLLRDADHAMYCTKQQGRQGYTLFSHQLRIDQADQLALETELRRALEEEGQLVPYYQPFIAAATGALAGFETLVRWQHPQRGLVSPGVFLPVAEESGLITRLDRYMINAACAQLQAWRAEGRVGEGIALHINLSSANFRDPDLVGWIGERIAHYRLPPAMLHLEITESALIDQPEAAATAMQALHGLGVRLALDDFGTGYSALSYLHRYRFDVLKIDQSFVFDLDRKQESVAIVRAILALARALDLEVVAEGVETASQSAMLKEMGCGMLQGFHFAAPAPAWALDWDKLARFAEGPGRVA | failed |
| MSTETIEIFNNSDEWANQLKHALSKGENLALLHGLTPDILDRIYAYAFDYHEKGNITDAEIYYKFLCIYAFENHEYLKDFASVCQPKKKYQQAYDLYKLSYNYFPYDDYSVIYRMGQCQIGAKNIDNAMQCFYHIINNCEDDSVKSKAQAYIELLNDNSEDNGLEHHHHHH | failed |
| EDYSCFIFRHFPQVQIHPHAQRAAQAAEAAAAQGQFWLMNDTLFDHQQRLENGYLVEYANDLGLDIPQFLKELAKQVHVDRIKKDIEGGLQSGVMAVPALFVNGILYRDCWNIKQLIATIIASSY | failed |
| MRSFILRARSAPTDSQRLLDEIGGKCHTEILAHCMMNSLFTAQSHREDVVIHLVLESTRDYSRTITVEANEISDVGGFHEAALIALLVKALDASVGMGKEQTRVVQPGLTVRTISFEALLGELAEHHSLYMMDKKGDSIRDIKIGPNPCFILTDHIPMPKKSGNSMKRLGVEKISLGPKMLFASQCVTLIHNEIDHQEA | not failed |
| MTQKVALIGFGGVAQGFIQILRERGEELPEHIQVVSITDWRRGAVHDPNGLDLDFIAKIIETDGTFEHYPERSGVIKGWNSFETIQQTNADTIVEVTFTDVLTGQPAIDHCKEALRLGKHVVTTNKGPIAVAYQELKELADANGVQLLYEGTVMSGTPALRLPEHTLIGNNIQEVKGILNGTTNYILTEMERGKTFEQALQDAQTLGYAEADPTSDVEGYDVLYKVVILANVMMGIPLKPSDVERVGISHLTPRDIKDAHSAGERWKLIGRVKKEGERTMATVRPERLPLTDPLANINGAINAITYECDISGPITLIGAGAGVKETGFALLIDLLHVNRLGE | failed |
